No end group written: not given here.
Columns and labels:
[1] = molecular target: Rat tail monomeric collagen I (Corning) (rat) (UniProt P02454); test: competitive ELISA on plate-coated rat tail collagen I, competitor biotin Compound 1B; IC50 against that of Compound 1
[2] = molecular target: biotin labeled PDGF-BB (R&D Systems) (UniProt P01127); test: competitive ELISA: biotin PDGF-BB pre-incubated with conjugate at 1 mg/mL, added to plate-coated PDGF-Rβ Fc; A450 against reference Compound 1 (higher = less inhibition)
Sequence of UniProt P01127 (P01127 82-190): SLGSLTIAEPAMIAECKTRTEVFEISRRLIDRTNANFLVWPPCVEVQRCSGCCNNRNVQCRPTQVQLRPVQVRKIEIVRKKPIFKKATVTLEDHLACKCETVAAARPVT

Binder | ratio IC50sample/IC50 Compound 1 [1] | ratio Absorbance 450 conjugate/Absorbance 450 reference [2]
GQLYKSILYGSGSGSRR (not fully specified (C-terminus); also: several peptides per HA backbone, peptide load 10) [HA108 backbone HA, 10PM] | 14.8 | 17
GQLYKSILYGSGSGSRR (not fully specified (C-terminus); also: several peptides per HA backbone, peptide load 50) [HA108 backbone HA, 50PM] | 7.49 | 9.31
GQLYKSILYGSGSGSRR (not fully specified (C-terminus); also: several peptides per HA backbone, peptide load 20) [HA108 backbone HA, 20PM] | 2.82 | 16.3
GQLYKSILYGSGSGSRR (not fully specified (C-terminus); also: several peptides per HA backbone, peptide load 30) [HA108 backbone HA, 30PM] | 13.4 | 14.2
